From patent US20230355708A1 (DREXEL UNIVERSITY, published 2023) come the findings set out here.

The target in the assay is SARS-CoV-2 spike S2 subunit (SARS-CoV-2, UniProt P0DTC2 686-1213). The assay is described as follows: SPR, S2 anchored on low dextran chip, CVN injected at increasing concentrations.

B1: Cyanovirin-N (CV-N) (other)
chain: LGKFSQTCYNSAIQGSVLTSTCERTNGGYNTSSIDLNSVIENVDGSLKWQPSNFIETCRNTQLAGSSELAAECKTRAQQFVSTKINLDDHIANIDGTLKYE
In the case of B1, the binding result was “binds”.
